Measurements from the Human Domainome abundance scans (Beltran et al. 2025).
± gives the uncertainty stated by the source.

B1: Gamma-crystallin D, residues 90 to 170; numbered along this chain, P07320 (parent)
chain: IRLYEREDYRGQMIEFTEDCSCLQDRFRFNEIHSLNVLEGSWVLYELSNYRGRQYLLMPGDYRRYQDWGATNARVGSLRRV

Variants of: B1
Assay: abundance fitness (aPCA) (normalised: wild type 0, dead -1); higher = more abundant; growth selection in yeast, the domain comes from the species named
Conditions: Homo sapiens
In the case of H33I, the abundance fitness is reported as 0.07 ± 0.13.
With H33R the abundance fitness was -0.005 ± 0.083.
H33P gave an abundance fitness of 0.062 ± 0.092.
With L35Q the abundance fitness was -0.01 ± 0.14.
For L35S, the abundance fitness was -0.035 ± 0.097.
With L35F the abundance fitness was 0.148 ± 0.1.
With L35R the abundance fitness was -0.863 ± 0.18.
In the case of L35V, the abundance fitness is reported as 0.048 ± 0.093.
L35E showed an abundance fitness of -1.08 ± 0.33.
Work on L35A yielded an abundance fitness of 0.024 ± 0.066.
L35T gave an abundance fitness of -0.034 ± 0.12.
For L35N, the abundance fitness was -0.156 ± 0.17.
For L35H, the abundance fitness was -0.535 ± 0.36.
L35M showed an abundance fitness of -0.036 ± 0.22.
L35P showed an abundance fitness of -1 ± 0.21.
In the case of L35G, the abundance fitness is reported as 0.035 ± 0.087.
L35I showed an abundance fitness of 0.231 ± 0.38.
For L35Y, the abundance fitness was -0.249 ± 0.26.
L35W showed an abundance fitness of -0.552 ± 0.1.
With N30V the abundance fitness was 0.143 ± 0.045.
N30T gave an abundance fitness of 0.038 ± 0.18.
Variant N30K has an abundance fitness of 0.107 ± 0.14.
N30E gave an abundance fitness of 0.092 ± 0.16.
N30L gave an abundance fitness of -0.122 ± 0.084.
For N30M, the abundance fitness was -0.051 ± 0.15.
Variant N30R has an abundance fitness of 0.024 ± 0.08.
For N30A, the abundance fitness was 0.028 ± 0.11.
In the case of N30D, the abundance fitness is reported as 0.018 ± 0.18.
With N30H the abundance fitness was -0.081 ± 0.27.
Work on N30W yielded an abundance fitness of -0.036 ± 0.087.
In the case of N30I, the abundance fitness is reported as 0.187 ± 0.21.
In the case of N30Y, the abundance fitness is reported as -0.1 ± 0.18.
For N30G, the abundance fitness was 0.054 ± 0.071.
L38Q showed an abundance fitness of -0.007 ± 0.17.
For L38C, the abundance fitness was -0.102 ± 0.1.
Work on L38G yielded an abundance fitness of 0.016 ± 0.057.
Work on L38M yielded an abundance fitness of -0.035 ± 0.097.
With L38K the abundance fitness was -0.141 ± 0.22.
With L38H the abundance fitness was 0.024 ± 0.15.
Variant L38D has an abundance fitness of 0.064 ± 0.12.
L38I showed an abundance fitness of 0.007 ± 0.16.
L38P showed an abundance fitness of 0.012 ± 0.078.
L38A gave an abundance fitness of -0.066 ± 0.069.
With L38R the abundance fitness was 0.029 ± 0.073.
Work on L38V yielded an abundance fitness of -0.045 ± 0.083.
In the case of L38S, the abundance fitness is reported as -0.065 ± 0.067.
With L38W the abundance fitness was 0.153 ± 0.097.
Variant L38T has an abundance fitness of -0.055 ± 0.1.
With E39G the abundance fitness was 0.084 ± 0.075.
With E39I the abundance fitness was -0.03 ± 0.22.
E39R gave an abundance fitness of 0.016 ± 0.069.
With E39A the abundance fitness was 0.074 ± 0.079.
With E39T the abundance fitness was 0.059 ± 0.11.
In the case of E39S, the abundance fitness is reported as -0.024 ± 0.077.
In the case of E39C, the abundance fitness is reported as -0.156 ± 0.12.
E39K showed an abundance fitness of -0.065 ± 0.14.
E39D gave an abundance fitness of -0.039 ± 0.17.
E39W gave an abundance fitness of -0.176 ± 0.1.
Variant E39Q has an abundance fitness of -0.084 ± 0.2.
With E39H the abundance fitness was 0.165 ± 0.24.
E39L gave an abundance fitness of -0.061 ± 0.079.
Variant E39P has an abundance fitness of -0.78 ± 0.18.
Variant E39M has an abundance fitness of -0.054 ± 0.18.
E39F showed an abundance fitness of -0.262 ± 0.31.
E31V gave an abundance fitness of -0.105 ± 0.082.
For E31G, the abundance fitness was 0.035 ± 0.067.
For E31L, the abundance fitness was 0.054 ± 0.085.
Variant E31S has an abundance fitness of -0.123 ± 0.099.
In the case of E31N, the abundance fitness is reported as 0.005 ± 0.32.
Variant E31M has an abundance fitness of 0.03 ± 0.19.
Work on E31W yielded an abundance fitness of 0.078 ± 0.1.
In the case of E31C, the abundance fitness is reported as -0.192 ± 0.15.
Work on E31K yielded an abundance fitness of -0.004 ± 0.14.
E31I gave an abundance fitness of 0.139 ± 0.48.
E31R showed an abundance fitness of 0.004 ± 0.051.
E31P showed an abundance fitness of 0.152 ± 0.084.
Variant E31F has an abundance fitness of -0.109 ± 0.16.
Work on E31T yielded an abundance fitness of 0.048 ± 0.12.
Work on E31D yielded an abundance fitness of -0.096 ± 0.18.
Variant E31H has an abundance fitness of 0.059 ± 0.22.
Variant E31Q has an abundance fitness of 0.116 ± 0.17.
Variant F29T has an abundance fitness of -0.135 ± 0.11.
F29C showed an abundance fitness of 0.036 ± 0.15.
Variant F29P has an abundance fitness of 0.069 ± 0.099.
Work on F29Y yielded an abundance fitness of 0.161 ± 0.21.
F29Q showed an abundance fitness of 0.041 ± 0.12.
Work on F29V yielded an abundance fitness of -0.072 ± 0.062.
F29I showed an abundance fitness of -0.112 ± 0.17.
With F29R the abundance fitness was 0.117 ± 0.11.
F29L gave an abundance fitness of -0.012 ± 0.077.
Variant F29W has an abundance fitness of 0.031 ± 0.14.
For F29G, the abundance fitness was -0.007 ± 0.056.
Variant F29S has an abundance fitness of 0.093 ± 0.082.
With F29A the abundance fitness was 0.008 ± 0.089.
Variant F29N has an abundance fitness of -0.064 ± 0.16.
With F29D the abundance fitness was 0.008 ± 0.18.
In the case of F29E, the abundance fitness is reported as 0.05 ± 0.1.
F29H showed an abundance fitness of -0.066 ± 0.12.
With N36F the abundance fitness was 0.114 ± 0.24.
With N36T the abundance fitness was -0.153 ± 0.12.
Variant N36H has an abundance fitness of -0.058 ± 0.14.
Variant N36I has an abundance fitness of -0.05 ± 0.14.
Work on N36M yielded an abundance fitness of -0.112 ± 0.16.
N36K gave an abundance fitness of -0.023 ± 0.17.
For N36P, the abundance fitness was -1.23 ± 0.23.
N36E showed an abundance fitness of 0.023 ± 0.12.
In the case of N36R, the abundance fitness is reported as 0.006 ± 0.086.
Work on N36D yielded an abundance fitness of -0.051 ± 0.23.
For N36A, the abundance fitness was 0.045 ± 0.081.
In the case of N36C, the abundance fitness is reported as -0.054 ± 0.1.
Work on N36Q yielded an abundance fitness of 0.051 ± 0.098.
Variant N36Y has an abundance fitness of -0.086 ± 0.22.
In the case of N36W, the abundance fitness is reported as 0.076 ± 0.061.
With N36S the abundance fitness was 0.135 ± 0.084.
Variant N36V has an abundance fitness of -0.098 ± 0.12.
N36G showed an abundance fitness of -0.087 ± 0.085.
S21K showed an abundance fitness of -0.045 ± 0.12.
In the case of S21E, the abundance fitness is reported as 0.069 ± 0.12.
With S21N the abundance fitness was -0.183 ± 0.31.
Work on S21V yielded an abundance fitness of -0.044 ± 0.078.
With S21G the abundance fitness was -0.05 ± 0.064.
With S21Q the abundance fitness was -0.246 ± 0.16.
For S21H, the abundance fitness was -0.088 ± 0.19.
S21R showed an abundance fitness of -0.03 ± 0.075.
For S21W, the abundance fitness was -0.099 ± 0.085.
In the case of S21I, the abundance fitness is reported as 0.004 ± 0.27.
Variant S21T has an abundance fitness of -0.047 ± 0.12.
S21P showed an abundance fitness of -0.215 ± 0.14.
Variant S21Y has an abundance fitness of 0.069 ± 0.28.
For S21F, the abundance fitness was 0.017 ± 0.16.
In the case of S21C, the abundance fitness is reported as -0.054 ± 0.13.
S21A gave an abundance fitness of -0.023 ± 0.1.
Variant S21D has an abundance fitness of 0.044 ± 0.16.
In the case of S21M, the abundance fitness is reported as -0.171 ± 0.2.
For R28Q, the abundance fitness was 0.1 ± 0.11.
Work on R28A yielded an abundance fitness of -0.005 ± 0.11.
Variant R28Y has an abundance fitness of -0.004 ± 0.2.
In the case of R28F, the abundance fitness is reported as -0.203 ± 0.23.
R28K showed an abundance fitness of 0.139 ± 0.13.
With R28G the abundance fitness was -0.031 ± 0.066.
R28I gave an abundance fitness of 0.029 ± 0.23.
Work on R28S yielded an abundance fitness of 0.024 ± 0.075.
Variant R28T has an abundance fitness of -0.002 ± 0.14.
R28L gave an abundance fitness of -0.043 ± 0.079.
With R28C the abundance fitness was -0.047 ± 0.083.
In the case of R28M, the abundance fitness is reported as 0.065 ± 0.14.
For R28H, the abundance fitness was -0.32 ± 0.16.
With R28E the abundance fitness was -0.177 ± 0.13.
With R28P the abundance fitness was -0.023 ± 0.1.
In the case of R28D, the abundance fitness is reported as 0.128 ± 0.22.
Q24S gave an abundance fitness of -0.008 ± 0.11.
For Q24V, the abundance fitness was -0.086 ± 0.062.
Q24D showed an abundance fitness of -0.051 ± 0.17.
For Q24I, the abundance fitness was -0.038 ± 0.17.
Q24H showed an abundance fitness of 0.08 ± 0.18.
For Q24R, the abundance fitness was 0.013 ± 0.063.
Q24W gave an abundance fitness of -0.073 ± 0.099.
With Q24K the abundance fitness was 0.068 ± 0.18.
In the case of Q24C, the abundance fitness is reported as -0.025 ± 0.15.
Variant Q24G has an abundance fitness of 0.01 ± 0.055.
With Q24N the abundance fitness was -0.022 ± 0.067.
Q24T showed an abundance fitness of -0.08 ± 0.12.
Q24E gave an abundance fitness of 0.029 ± 0.13.
With Q24Y the abundance fitness was -0.045 ± 0.27.
With Q24P the abundance fitness was 0.02 ± 0.13.
Q24A gave an abundance fitness of -0.021 ± 0.086.
Q24M gave an abundance fitness of 0.167 ± 0.15.
